B1: Lis1^AAA5 (Lis1 M172K, D192K, Y225A, C226D) (natural protein)
chain: VLSQRQRDELNRAIADYLRSNGYEEAYSVFKKEAELDVNEELDKKYAGLLEKKWTSVIRLQKKVMELESKLNEAKEEFTSGGPLGQKRDPKEWIPRPPEKYALSGHRSPVTRVIFHPVFSVMVSASEDATIKVWDYETGDFERTLKGHTDSVQDISFDHSGKLLASCSADKTIKLWDFQGFECIRTMHGHKHNVSSVAIMPNGDHIVSASRDKTIKMWEVQTGADVKTFTGHREWVRMVRPNQDGTLIASCSNDQTVRVWVVATKECKAELREHEHVVECISWAPESSYSSISEATGSETKKSGKPGPFLLSGSRDKTIKMWDVSTGMCLMTLVGHDNWVRGVLFHSGGKFILSCADDKTLRVWDYKNKRCMKTLNAHEHFVTSLDFHKTAPYVVTGSVDQTVKVWECR
B2: Lis1^AAA6 (Lis1 N203K, D205K, Q222A) (natural protein)
chain: B1 chain with K171M, K191D, N202K, D204K, Q221A, A224Y, D225C
B3: human Nde1 (N-terminal residues 1-190) (domain or fragment)
chain: MEDSGKTFSSEEEEANYWKDLAMTYKQRAENTQEELREFQEGSREYEAELETQLQQIETRNRDLLSENNRLRMELETIKEKFEVQHSEGYRQISALEDDLAQTKAIKDQLQKYIRELEQANDDLERAKRATIMSLEDFEQRLNQAIERNAFLESELDEKENLLESVQRLKDEARDLRQELAVQQKQEKPR
B4: Lis1^linker (Lis1 E300K, K303E, S304R, M329A) (natural protein)
chain: B1 chain with K171M, K191D, A224Y, D225C, E299K, K302E, S303R, M328A

Data set [1] addresses full-length human dynein (cytoplasmic dynein-1), wild type (human) (UniProt Q14204). Put plainly: mass photometry.
The target is the same in data set [2]. The data set can be described thus: cryo-EM structure.
The data set “mass photometry” concerns the molecule itself. Put plainly: mass photometry.
The target of a further data set is T1, human Lis1, wild type (human, UniProt P43034 2-410).
T1 sequence: B1 chain with K171M, K191D, A224Y, D225C
Put plainly: mass photometry.

Data set [3] concerns the target B4. The data set can be described thus: mass photometry.
Data set [4] has as its target B2. The data set can be described thus: mass photometry.
Data set [5] deals with B1. The data set can be described thus: mass photometry.

Consider five molecules from paper PMC11722290 (bioRxiv, 2025).

Substitutions are numbered along the chain they refer to. Names and notes keep the numbering of the source.

On to “human Lis1, wild type (from UniProt P43034 2-410) (natural protein)”, for which, in data set [1], the percent of 1:1 dynein:Lis1 complex was 37%, the percent of complex formation stood at 69%, the stoichiometry N (Lis1 dimer per dynein) was 1 and the stoichiometry N (Lis1 per dynein) was determined as 1. In data set [2], this molecule had a percent of autoinhibited dynein particles in Phi^L-Lis1 of 57.3% and a stoichiometry N (Lis1 dimer per dynein) of 1.
With B1, the “stoichiometry N” value in “mass photometry” stood at 2.
Turning to B2, in “mass photometry”, the “stoichiometry N” value stood at 2.
Take B3: the binding result with human Lis1, wild type is on record as “binds”; in data set [3], “binds”; in data set [4] it was “binds”; in data set [5], “binds”.
Turning to B4, the “stoichiometry N” value in “mass photometry” came to 2.

As usually defined, the stoichiometry N is a count of units in the complex or per binding partner.
